How the values were obtained:
purified protein [1] = substrate: CC(C)C[C@H](N)C(=O)Nc1ccc([N+](=O)[O-])cc1; experiment: purified protein; format: biochemical, Synechococcus elongatus; settings: pH 7.5, 50 mM Tris-HCl, 0.2 mM MnCl2, 37 °C, 5 µg/mL enzyme
purified protein [2] = substrate: N[C@@H](CS)C(=O)NCC(=O)O; experiment: purified protein; format: biochemical, Synechococcus elongatus; settings: pH 7.5, 50 mM Tris-HCl, 0.2 mM MnCl2, 37 °C, 5 µg/mL enzyme

B1: SynPCC7942_1190 (LAP, leucyl aminopeptidase) (Synechococcus elongatus PCC 7942 = FACHB-805) (protein)
chain: MTFQAIATHPQDWTGDTLALGLTTAAIGETLSSELQKLDQQWNGVLQELISDSEFKAKLAETTTTRIGGSIRKLILVGLGESPTTEDYRRAAAAVAKQARSFKSQTLAIAFPPSDDPAAIASAIVEGISLALYKDQRFKSEPDTASGPSSIELLGLAGQEAAIARAEQVVAGVELARQLVAAPANVVTPVTMADTAQELAAELGLELEILEADECEKRGMGAFLGVAKASDLPPKFIHLTYRPESTPRRKLAIVGKGLTFDSGGYNIKGAGSGIEMMKTDMGGAAATLGAAKAIGLIKPDVEVHFISAVTENMISGRGMHPGDILTASNGKTIEVNNTDAEGRLTLADALVFADGLGVDAIVDLATLTGACIIALGDDIAGLWSPSDDLAEQLLQAGKAAGEKLWRLPLEEPYLDGLKSPVADYKNTGPRAGGSITAALFLKQFVKHPVWAHLDVAGPVWSDKEKHYNPAGATGYGVRTLVNWVLS
notes: full-length gene in pET-28b(+) (pAM5836), Strep-tag (text: N terminus)
Km (purified protein [1]): 7.44 mM
Km (purified protein [2]): 1.21 mM

— article PMC9659335, “An unexpected role for leucyl aminopeptidase in UV tolerance revealed by a genome-wide fitness assessment in a model cyanobacterium” (Proceedings of the National Academy of Sciences of the …, 2022)
